Results reported in patent US20040258687A1.

Molecular target: guanylyl cyclase C (GC-C), as expressed on T84 human colon carcinoma cells (human) (UniProt P25092)
Assay: cell-based or functional assay

Sequence of guanylyl cyclase C (GC-C), as expressed on T84 human colon carcinoma cells (human) (P25092 24-1073): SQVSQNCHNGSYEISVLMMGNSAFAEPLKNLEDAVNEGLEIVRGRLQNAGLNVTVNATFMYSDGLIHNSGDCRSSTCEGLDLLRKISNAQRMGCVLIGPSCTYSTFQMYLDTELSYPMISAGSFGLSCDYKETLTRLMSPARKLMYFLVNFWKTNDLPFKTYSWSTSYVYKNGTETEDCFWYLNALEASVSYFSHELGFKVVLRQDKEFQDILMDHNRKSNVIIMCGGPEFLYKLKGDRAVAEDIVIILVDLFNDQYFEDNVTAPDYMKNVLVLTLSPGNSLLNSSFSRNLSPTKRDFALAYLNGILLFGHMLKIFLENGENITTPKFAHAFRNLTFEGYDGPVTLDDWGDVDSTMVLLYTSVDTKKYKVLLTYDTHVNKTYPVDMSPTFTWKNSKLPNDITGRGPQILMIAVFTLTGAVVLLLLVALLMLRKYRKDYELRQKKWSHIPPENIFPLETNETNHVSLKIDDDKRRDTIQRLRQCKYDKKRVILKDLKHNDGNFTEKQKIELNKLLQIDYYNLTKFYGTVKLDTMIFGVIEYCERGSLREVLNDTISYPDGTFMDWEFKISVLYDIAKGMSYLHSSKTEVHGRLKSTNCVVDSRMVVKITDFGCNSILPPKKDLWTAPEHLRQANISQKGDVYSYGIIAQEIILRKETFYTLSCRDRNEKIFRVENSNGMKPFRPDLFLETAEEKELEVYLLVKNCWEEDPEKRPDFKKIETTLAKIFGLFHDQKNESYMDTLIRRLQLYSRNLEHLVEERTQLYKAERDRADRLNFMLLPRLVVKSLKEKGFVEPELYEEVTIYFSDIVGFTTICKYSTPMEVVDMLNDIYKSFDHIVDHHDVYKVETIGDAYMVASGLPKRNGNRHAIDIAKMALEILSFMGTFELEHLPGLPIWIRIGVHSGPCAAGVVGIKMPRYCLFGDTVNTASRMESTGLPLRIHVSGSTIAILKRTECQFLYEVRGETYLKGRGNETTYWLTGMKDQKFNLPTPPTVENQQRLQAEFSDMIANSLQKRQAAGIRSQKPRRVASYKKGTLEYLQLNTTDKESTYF

“E. coli heat-stable enterotoxin (ST) (peptide)” showed an EC50 for ST (cytostatic effect, in vitro TJU experiments) of 10 nM.
